B1: Pistol ribozyme (parent)
chain: GGGUCGUUGUUCCAUAAUCGCGUGGAUAUGGCACGCAAGUUUCUACCGGGCACCGUAAAUGUCCGACUGGAGCCGUUCGGGCGGCUAUAAACAGACCUCAGGCCCGAAGCGUGGCGGCACCUGCCGCCGGUGGUAAAAAAGAUCGGAAGAGCACACGUCU

Variants of: B1
Assay: aptazyme ON/OFF ratio, guanine; higher = stronger switching; co-transcriptional cleavage with and without guanine

Variant | aptazyme ON/OFF ratio
GGGUCGGUCCUUAAUAAUCGCGUGGAUAUGGCACGCAAGUUUCUACCGGGCACCGUAAAUGUCCGACUGGAGCCGUUCGGGCGGCUAUAAACAGACCUCAGGCCCGAAGCGUGGCGGCACCUGCCGCCGGUGGUAAAAAAGAUCGGAAGAGCACACGUCU | 1.21
GGGUCGAUGUCGGAUAAUCGCGUGGAUAUGGCACGCAAGUUUCUACCGGGCACCGUAAAUGUCCGACUGGAGCCGUUCGGGCGGCUAUAAACAGACCUCAGGCCCGAAGCGUGGCGGCACCUGCCGCCGGUGGUAAAAAAGAUCGGAAGAGCACACGUCU | 1.16
GGGUCGGUAAGGUAUAAUCGCGUGGAUAUGGCACGCAAGUUUCUACCGGGCACCGUAAAUGUCCGACUGGAGCCGUUCGGGCGGCUAUAAACAGACCUCAGGCCCGAAGCGUGGCGGCACCUGCCGCCGGUGGUAAAAAAGAUCGGAAGAGCACACGUCU | 1.22
GGGUCGUCCGUACAUAAUCGCGUGGAUAUGGCACGCAAGUUUCUACCGGGCACCGUAAAUGUCCGACUGGAGCCGUUCGGGCGGCUAUAAACAGACCUCAGGCCCGAAGCGUGGCGGCACCUGCCGCCGGUGGUAAAAAAGAUCGGAAGAGCACACGUCU | 1.2
GGGUCGUCAGGACAUAAUCGCGUGGAUAUGGCACGCAAGUUUCUACCGGGCACCGUAAAUGUCCGACUGGAGCCGUUCGGGCGGCUAUAAACAGACCUCAGGCCCGAAGCGUGGCGGCACCUGCCGCCGGUGGUAAAAAAGAUCGGAAGAGCACACGUCU | 1.12
GGGUCGUCGAAAGAUAAUCGCGUGGAUAUGGCACGCAAGUUUCUACCGGGCACCGUAAAUGUCCGACUGGAGCCGUUCGGGCGGCUAUAAACAGACCUCAGGCCCGAAGCGUGGCGGCACCUGCCGCCGGUGGUAAAAAAGAUCGGAAGAGCACACGUCU | 1.07
GGGUCGUACAGUCAUAAUCGCGUGGAUAUGGCACGCAAGUUUCUACCGGGCACCGUAAAUGUCCGACUGGAGCCGUUCGGGCGGCUAUAAACAGACCUCAGGCCCGAAGCGUGGCGGCACCUGCCGCCGGUGGUAAAAAAGAUCGGAAGAGCACACGUCU | 1.25
GGGUCGUUAAGAAAUAAUCGCGUGGAUAUGGCACGCAAGUUUCUACCGGGCACCGUAAAUGUCCGACUGGAGCCGUUCGGGCGGCUAUAAACAGACCUCAGGCCCGAAGCGUGGCGGCACCUGCCGCCGGUGGUAAAAAAGAUCGGAAGAGCACACGUCU | 1.07
GGGUCGAAUGUCAAUAAUCGCGUGGAUAUGGCACGCAAGUUUCUACCGGGCACCGUAAAUGUCCGACUGGAGCCGUUCGGGCGGCUAUAAACAGACCUCAGGCCCGAAGCGUGGCGGCACCUGCCGCCGGUGGUAAAAAAGAUCGGAAGAGCACACGUCU | 1.24
GGGUCGAACGUUAAUAAUCGCGUGGAUAUGGCACGCAAGUUUCUACCGGGCACCGUAAAUGUCCGACUGGAGCCGUUCGGGCGGCUAUAAACAGACCUCAGGCCCGAAGCGUGGCGGCACCUGCCGCCGGUGGUAAAAAAGAUCGGAAGAGCACACGUCU | 1.22
GGGUCGCACCUGAAUAAUCGCGUGGAUAUGGCACGCAAGUUUCUACCGGGCACCGUAAAUGUCCGACUGGAGCCGUUCGGGCGGCUAUAAACAGACCUCAGGCCCGAAGCGUGGCGGCACCUGCCGCCGGUGGUAAAAAAGAUCGGAAGAGCACACGUCU | 1.06
GGGUCGCCCUCAAAUAAUCGCGUGGAUAUGGCACGCAAGUUUCUACCGGGCACCGUAAAUGUCCGACUGGAGCCGUUCGGGCGGCUAUAAACAGACCUCAGGCCCGAAGCGUGGCGGCACCUGCCGCCGGUGGUAAAAAAGAUCGGAAGAGCACACGUCU | 1.16
GGGUCGGAUGCUGAUAAUCGCGUGGAUAUGGCACGCAAGUUUCUACCGGGCACCGUAAAUGUCCGACUGGAGCCGUUCGGGCGGCUAUAAACAGACCUCAGGCCCGAAGCGUGGCGGCACCUGCCGCCGGUGGUAAAAAAGAUCGGAAGAGCACACGUCU | 1.17
GGGUCGCGAACGAAUAAUCGCGUGGAUAUGGCACGCAAGUUUCUACCGGGCACCGUAAAUGUCCGACUGGAGCCGUUCGGGCGGCUAUAAACAGACCUCAGGCCCGAAGCGUGGCGGCACCUGCCGCCGGUGGUAAAAAAGAUCGGAAGAGCACACGUCU | 1.32
GGGUCGGAACCAGAUAAUCGCGUGGAUAUGGCACGCAAGUUUCUACCGGGCACCGUAAAUGUCCGACUGGAGCCGUUCGGGCGGCUAUAAACAGACCUCAGGCCCGAAGCGUGGCGGCACCUGCCGCCGGUGGUAAAAAAGAUCGGAAGAGCACACGUCU | 1.25
GGGUCGAUUGAGCAUAAUCGCGUGGAUAUGGCACGCAAGUUUCUACCGGGCACCGUAAAUGUCCGACUGGAGCCGUUCGGGCGGCUAUAAACAGACCUCAGGCCCGAAGCGUGGCGGCACCUGCCGCCGGUGGUAAAAAAGAUCGGAAGAGCACACGUCU | 1.33
GGGUCGGCAUGAGAUAAUCGCGUGGAUAUGGCACGCAAGUUUCUACCGGGCACCGUAAAUGUCCGACUGGAGCCGUUCGGGCGGCUAUAAACAGACCUCAGGCCCGAAGCGUGGCGGCACCUGCCGCCGGUGGUAAAAAAGAUCGGAAGAGCACACGUCU | 1.1
GGGUCGUCUGUAAAUAAUCGCGUGGAUAUGGCACGCAAGUUUCUACCGGGCACCGUAAAUGUCCGACUGGAGCCGUUCGGGCGGCUAUAAACAGACCUCAGGCCCGAAGCGUGGCGGCACCUGCCGCCGGUGGUAAAAAAGAUCGGAAGAGCACACGUCU | 1.48

Variant | aptazyme ON/OFF ratio
GGGUCGUCAGACAAUAAUCGCGUGGAUAUGGCACGCAAGUUUCUACCGGGCACCGUAAAUGUCCGACUGGAGCCGUUCGGGCGGCUAUAAACAGACCUCAGGCCCGAAGCGUGGCGGCACCUGCCGCCGGUGGUAAAAAAGAUCGGAAGAGCACACGUCU | 1.03
GGGUCGGUGUUAAAUAAUCGCGUGGAUAUGGCACGCAAGUUUCUACCGGGCACCGUAAAUGUCCGACUGGAGCCGUUCGGGCGGCUAUAAACAGACCUCAGGCCCGAAGCGUGGCGGCACCUGCCGCCGGUGGUAAAAAAGAUCGGAAGAGCACACGUCU | 1.22
GGGUCGAUAAACGAUAAUCGCGUGGAUAUGGCACGCAAGUUUCUACCGGGCACCGUAAAUGUCCGACUGGAGCCGUUCGGGCGGCUAUAAACAGACCUCAGGCCCGAAGCGUGGCGGCACCUGCCGCCGGUGGUAAAAAAGAUCGGAAGAGCACACGUCU | 1.08
GGGUCGUGAGGUUAUAAUCGCGUGGAUAUGGCACGCAAGUUUCUACCGGGCACCGUAAAUGUCCGACUGGAGCCGUUCGGGCGGCUAUAAACAGACCUCAGGCCCGAAGCGUGGCGGCACCUGCCGCCGGUGGUAAAAAAGAUCGGAAGAGCACACGUCU | 1.29
GGGUCGCUAGAGCAUAAUCGCGUGGAUAUGGCACGCAAGUUUCUACCGGGCACCGUAAAUGUCCGACUGGAGCCGUUCGGGCGGCUAUAAACAGACCUCAGGCCCGAAGCGUGGCGGCACCUGCCGCCGGUGGUAAAAAAGAUCGGAAGAGCACACGUCU | 1.21
GGGUCGUGAUAGGAUAAUCGCGUGGAUAUGGCACGCAAGUUUCUACCGGGCACCGUAAAUGUCCGACUGGAGCCGUUCGGGCGGCUAUAAACAGACCUCAGGCCCGAAGCGUGGCGGCACCUGCCGCCGGUGGUAAAAAAGAUCGGAAGAGCACACGUCU | 1.17
GGGUCGCUAGGAGAUAAUCGCGUGGAUAUGGCACGCAAGUUUCUACCGGGCACCGUAAAUGUCCGACUGGAGCCGUUCGGGCGGCUAUAAACAGACCUCAGGCCCGAAGCGUGGCGGCACCUGCCGCCGGUGGUAAAAAAGAUCGGAAGAGCACACGUCU | 1.09
GGGUCGGGCCCGCAUAAUCGCGUGGAUAUGGCACGCAAGUUUCUACCGGGCACCGUAAAUGUCCGACUGGAGCCGUUCGGGCGGCUAUAAACAGACCUCAGGCCCGAAGCGUGGCGGCACCUGCCGCCGGUGGUAAAAAAGAUCGGAAGAGCACACGUCU | 1.05
GGGUCGCUCCCUCAUAAUCGCGUGGAUAUGGCACGCAAGUUUCUACCGGGCACCGUAAAUGUCCGACUGGAGCCGUUCGGGCGGCUAUAAACAGACCUCAGGCCCGAAGCGUGGCGGCACCUGCCGCCGGUGGUAAAAAAGAUCGGAAGAGCACACGUCU | 1.01
GGGUCGCCAAACCAUAAUCGCGUGGAUAUGGCACGCAAGUUUCUACCGGGCACCGUAAAUGUCCGACUGGAGCCGUUCGGGCGGCUAUAAACAGACCUCAGGCCCGAAGCGUGGCGGCACCUGCCGCCGGUGGUAAAAAAGAUCGGAAGAGCACACGUCU | 3.49
GGGUCGAGCCAGGAUAAUCGCGUGGAUAUGGCACGCAAGUUUCUACCGGGCACCGUAAAUGUCCGACUGGAGCCGUUCGGGCGGCUAUAAACAGACCUCAGGCCCGAAGCGUGGCGGCACCUGCCGCCGGUGGUAAAAAAGAUCGGAAGAGCACACGUCU | 1.21
GGGUCGUUCAGUGAUAAUCGCGUGGAUAUGGCACGCAAGUUUCUACCGGGCACCGUAAAUGUCCGACUGGAGCCGUUCGGGCGGCUAUAAACAGACCUCAGGCCCGAAGCGUGGCGGCACCUGCCGCCGGUGGUAAAAAAGAUCGGAAGAGCACACGUCU | 1.16
GGGUCGCGCGCUCAUAAUCGCGUGGAUAUGGCACGCAAGUUUCUACCGGGCACCGUAAAUGUCCGACUGGAGCCGUUCGGGCGGCUAUAAACAGACCUCAGGCCCGAAGCGUGGCGGCACCUGCCGCCGGUGGUAAAAAAGAUCGGAAGAGCACACGUCU | 1.07
GGGUCGUGUCUCAAUAAUCGCGUGGAUAUGGCACGCAAGUUUCUACCGGGCACCGUAAAUGUCCGACUGGAGCCGUUCGGGCGGCUAUAAACAGACCUCAGGCCCGAAGCGUGGCGGCACCUGCCGCCGGUGGUAAAAAAGAUCGGAAGAGCACACGUCU | 1.04
GGGUCGCGUUAGAAUAAUCGCGUGGAUAUGGCACGCAAGUUUCUACCGGGCACCGUAAAUGUCCGACUGGAGCCGUUCGGGCGGCUAUAAACAGACCUCAGGCCCGAAGCGUGGCGGCACCUGCCGCCGGUGGUAAAAAAGAUCGGAAGAGCACACGUCU | 1.05
GGGUCGACCCAUAAUAAUCGCGUGGAUAUGGCACGCAAGUUUCUACCGGGCACCGUAAAUGUCCGACUGGAGCCGUUCGGGCGGCUAUAAACAGACCUCAGGCCCGAAGCGUGGCGGCACCUGCCGCCGGUGGUAAAAAAGAUCGGAAGAGCACACGUCU | 1.04
GGGUCGAAACAUUAUAAUCGCGUGGAUAUGGCACGCAAGUUUCUACCGGGCACCGUAAAUGUCCGACUGGAGCCGUUCGGGCGGCUAUAAACAGACCUCAGGCCCGAAGCGUGGCGGCACCUGCCGCCGGUGGUAAAAAAGAUCGGAAGAGCACACGUCU | 1.03
GGGUCGGACUCCAAUAAUCGCGUGGAUAUGGCACGCAAGUUUCUACCGGGCACCGUAAAUGUCCGACUGGAGCCGUUCGGGCGGCUAUAAACAGACCUCAGGCCCGAAGCGUGGCGGCACCUGCCGCCGGUGGUAAAAAAGAUCGGAAGAGCACACGUCU | 1.06

Reference: the RNAGym collection of RNA variant scans (doi:10.1021/acssynbio.7b00057)
